Data from US20250326817A1 (LA JOLLA INSTITUTE FOR IMMUNOLOGY, published 2025).

T1: mouse LIGHT, full length, on transfected cells (mouse, UniProt Q9QYH9 1-239)
T1 construct: whole, on cells; also called mLIGHT; mLIGHT-IRES-EGFP
T1 sequence (looked up): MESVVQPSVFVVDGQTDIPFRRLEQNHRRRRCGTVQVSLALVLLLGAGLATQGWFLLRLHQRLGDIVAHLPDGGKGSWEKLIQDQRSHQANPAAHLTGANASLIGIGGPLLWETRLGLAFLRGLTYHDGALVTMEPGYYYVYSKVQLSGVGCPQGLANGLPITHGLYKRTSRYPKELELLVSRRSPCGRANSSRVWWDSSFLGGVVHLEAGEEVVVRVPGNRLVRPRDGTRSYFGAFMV

T2: mouse BTLA, full length, fused to EGFP, on HEK293 FreeStyle cells (mouse, UniProt Q7TSA3 30-306)
T2 construct: whole, on cells; also called mBTLA; mBTLA-EGFP; not shown: EGFP fused at the C-terminus (pEGFP-N1 vector)
T2 sequence (looked up): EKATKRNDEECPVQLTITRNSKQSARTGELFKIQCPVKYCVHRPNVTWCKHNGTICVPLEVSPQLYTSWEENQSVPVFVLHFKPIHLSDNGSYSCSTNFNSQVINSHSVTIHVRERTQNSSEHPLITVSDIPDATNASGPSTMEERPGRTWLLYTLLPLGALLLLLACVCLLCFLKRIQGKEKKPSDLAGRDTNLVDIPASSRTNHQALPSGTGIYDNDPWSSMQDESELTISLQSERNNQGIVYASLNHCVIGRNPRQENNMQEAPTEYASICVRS

T3: mouse BTLA, soluble protein (analyte of the Octet assay) (mouse, UniProt Q7TSA3 30-183, limits assumed)
T3 construct: The construct is not described; also called mBTLA; mBTLA-penta-His-tag
T3 sequence (looked up): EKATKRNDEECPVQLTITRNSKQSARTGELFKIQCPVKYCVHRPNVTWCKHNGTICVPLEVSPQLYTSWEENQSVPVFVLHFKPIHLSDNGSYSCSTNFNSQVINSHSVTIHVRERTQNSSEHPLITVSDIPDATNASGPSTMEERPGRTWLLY

T4: mouse CD160 residues I30-H154 with C-terminal …, refolded from E. coli inclusion bodies (mouse, UniProt O88875 30-154, biotin (mCD160-biotin in the cell staining assay; site not stated))
T4 construct: range 30-154; also called mCD160; mCD160-biotin
T4 sequence: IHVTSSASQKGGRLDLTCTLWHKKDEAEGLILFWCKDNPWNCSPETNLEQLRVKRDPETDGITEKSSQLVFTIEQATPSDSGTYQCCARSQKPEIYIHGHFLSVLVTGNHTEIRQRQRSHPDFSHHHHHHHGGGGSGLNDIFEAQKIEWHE


How the values were obtained:
[1] = target: T1, mouse LIGHT, full length, on …; assay: cell-cell flow cytometry (mHVEM-mCherry cells + mLIGHT-IRES-EGFP cells)
Procedure: (§1) After 2˜3 days, the cells were harvested and diluted to […]. […] These cells were further recorded and analyzed by flow cytometry. […] The cells were incubated for 30 min with shaking at room temperature and washed once by PBS containing 0.2% BSA (PBS-BSA). The cells were re-suspended in 100 uL of PBS-BSA and analyzed by flow cytometry.

[2] = target: T2, mouse BTLA, full length, fused to EGFP, …; assay: cell-cell flow cytometry (mHVEM-mCherry cells + mBTLA-EGFP cells)
Procedure: as §1

[3] = target: T3, mouse BTLA, soluble protein (analyte of …); assay: cell-protein flow cytometry (mHVEM-mCherry cells + mBTLA-His/anti-His green)
Procedure: as §1

[4] = target: T4, mouse CD160 residues I30-H154 with …; assay: cell-protein flow cytometry (mHVEM-mCherry cells + mCD160-biotin/streptavidin-AF488)
Procedure: as §1

| binding result [1] | binding result [2] | binding result [3] | binding result [4] | Binder |
| --- | --- | --- | --- | --- |
| binds | binds | – | – | mouse HVEM, wild type, full length, fused to mCherry, on HEK293 FreeStyle cells (receptor, also called mHVEM; WT mHVEM; not shown: mCherry fused at the C-terminus (pmCherry-N1 vector)) QPSCRQEEFLVGDECCPMCNPGYHVKQVCSEHTGTVCAPCPPQTYTAHANGLSKCLPCGVCDPDMGLLTWQECSSWKDTVCRCIPGYFCENQDGSHCSTCLQHTTCPPGQRVEKRGTHDQDTVCADCLTGTFSLGGTQEECLPWTNCSAFQQEVRRGTNSTDTTCSSQVVYYVVSILLPLVIVGAGIAGFLICTRRHLHTSSVAKELEPFQEQQENTIRFPVTEVGFAETEEETASN |
| binds | no binding | no binding | no binding | G72D-V74A (receptor, on HEK293 FreeStyle cells; also called mHVEM G72D-V74A; not shown: mCherry reporter (and any vector linker) fused at the cytoplasmic C-terminus (pmCherry-N1)) QPSCRQEEFLVGDECCPMCNPGYHVKQVCSEHTDTACAPCPPQTYTAHANGLSKCLPCGVCDPDMGLLTWQECSSWKDTVCRCIPGYFCENQDGSHCSTCLQHTTCPPGQRVEKRGTHDQDTVCADCLTGTFSLGGTQEECLPWTNCSAFQQEVRRGTNSTDTTCSSQVVYYVVSILLPLVIVGAGIAGFLICTRRHLHTSSVAKELEPFQEQQENTIRFPVTEVGFAETEEETASN |
| no binding | binds | – | binds | H86A-L90A (receptor, on HEK293 FreeStyle cells; also called mHVEM H86A-L90A; not shown: mCherry reporter (and any vector linker) fused at the cytoplasmic C-terminus (pmCherry-N1)) QPSCRQEEFLVGDECCPMCNPGYHVKQVCSEHTGTVCAPCPPQTYTAAANGASKCLPCGVCDPDMGLLTWQECSSWKDTVCRCIPGYFCENQDGSHCSTCLQHTTCPPGQRVEKRGTHDQDTVCADCLTGTFSLGGTQEECLPWTNCSAFQQEVRRGTNSTDTTCSSQVVYYVVSILLPLVIVGAGIAGFLICTRRHLHTSSVAKELEPFQEQQENTIRFPVTEVGFAETEEETASN |
| binds | no binding | no binding | no binding | G72D-V74D (receptor, on HEK293 FreeStyle cells; also called mHVEM G72D-V74D; not shown: mCherry reporter (and any vector linker) fused at the cytoplasmic C-terminus (pmCherry-N1)) QPSCRQEEFLVGDECCPMCNPGYHVKQVCSEHTDTDCAPCPPQTYTAHANGLSKCLPCGVCDPDMGLLTWQECSSWKDTVCRCIPGYFCENQDGSHCSTCLQHTTCPPGQRVEKRGTHDQDTVCADCLTGTFSLGGTQEECLPWTNCSAFQQEVRRGTNSTDTTCSSQVVYYVVSILLPLVIVGAGIAGFLICTRRHLHTSSVAKELEPFQEQQENTIRFPVTEVGFAETEEETASN |
| no binding | binds | – | binds | H86R-L90A (receptor, on HEK293 FreeStyle cells; also called mHVEM H86R-L90A; not shown: mCherry reporter (and any vector linker) fused at the cytoplasmic C-terminus (pmCherry-N1)) QPSCRQEEFLVGDECCPMCNPGYHVKQVCSEHTGTVCAPCPPQTYTARANGASKCLPCGVCDPDMGLLTWQECSSWKDTVCRCIPGYFCENQDGSHCSTCLQHTTCPPGQRVEKRGTHDQDTVCADCLTGTFSLGGTQEECLPWTNCSAFQQEVRRGTNSTDTTCSSQVVYYVVSILLPLVIVGAGIAGFLICTRRHLHTSSVAKELEPFQEQQENTIRFPVTEVGFAETEEETASN |
| no binding | binds | – | no binding | A76D_H86D_L90A (receptor, on HEK293 FreeStyle cells; also called mHVEM A76D-H86D-L90A; not shown: mCherry fused at the C-terminus (pmCherry-N1 vector) and any vector linker) QPSCRQEEFLVGDECCPMCNPGYHVKQVCSEHTGTVCDPCPPQTYTADANGASKCLPCGVCDPDMGLLTWQECSSWKDTVCRCIPGYFCENQDGSHCSTCLQHTTCPPGQRVEKRGTHDQDTVCADCLTGTFSLGGTQEECLPWTNCSAFQQEVRRGTNSTDTTCSSQVVYYVVSILLPLVIVGAGIAGFLICTRRHLHTSSVAKELEPFQEQQENTIRFPVTEVGFAETEEETASN |
| no binding | binds | – | – | A76D_H86D_L90D (receptor, on HEK293 FreeStyle cells; also called mHVEM A76D-H86D-L90D; not shown: mCherry fused at the C-terminus (pmCherry-N1 vector)) QPSCRQEEFLVGDECCPMCNPGYHVKQVCSEHTGTVCDPCPPQTYTADANGDSKCLPCGVCDPDMGLLTWQECSSWKDTVCRCIPGYFCENQDGSHCSTCLQHTTCPPGQRVEKRGTHDQDTVCADCLTGTFSLGGTQEECLPWTNCSAFQQEVRRGTNSTDTTCSSQVVYYVVSILLPLVIVGAGIAGFLICTRRHLHTSSVAKELEPFQEQQENTIRFPVTEVGFAETEEETASN |
| binds | no binding | no binding | no binding | G72D-V74R (receptor, on HEK293 FreeStyle cells; also called mHVEM G72D-V74R; not shown: mCherry reporter (and any vector linker) fused at the cytoplasmic C-terminus (pmCherry-N1)) QPSCRQEEFLVGDECCPMCNPGYHVKQVCSEHTDTRCAPCPPQTYTAHANGLSKCLPCGVCDPDMGLLTWQECSSWKDTVCRCIPGYFCENQDGSHCSTCLQHTTCPPGQRVEKRGTHDQDTVCADCLTGTFSLGGTQEECLPWTNCSAFQQEVRRGTNSTDTTCSSQVVYYVVSILLPLVIVGAGIAGFLICTRRHLHTSSVAKELEPFQEQQENTIRFPVTEVGFAETEEETASN |
| no binding | binds | – | binds | H86D-L90D (receptor, on HEK293 FreeStyle cells; also called mHVEM H86D-L90D; not shown: mCherry reporter (and any vector linker) fused at the cytoplasmic C-terminus (pmCherry-N1)) QPSCRQEEFLVGDECCPMCNPGYHVKQVCSEHTGTVCAPCPPQTYTADANGDSKCLPCGVCDPDMGLLTWQECSSWKDTVCRCIPGYFCENQDGSHCSTCLQHTTCPPGQRVEKRGTHDQDTVCADCLTGTFSLGGTQEECLPWTNCSAFQQEVRRGTNSTDTTCSSQVVYYVVSILLPLVIVGAGIAGFLICTRRHLHTSSVAKELEPFQEQQENTIRFPVTEVGFAETEEETASN |
| binds | binds | – | – | mouse HVEM A76D, full length, fused to mCherry, on cells (receptor, also called mHVEM A76D; not shown: mCherry fused at the C-terminus (pmCherry-N1 vector)) QPSCRQEEFLVGDECCPMCNPGYHVKQVCSEHTGTVCDPCPPQTYTAHANGLSKCLPCGVCDPDMGLLTWQECSSWKDTVCRCIPGYFCENQDGSHCSTCLQHTTCPPGQRVEKRGTHDQDTVCADCLTGTFSLGGTQEECLPWTNCSAFQQEVRRGTNSTDTTCSSQVVYYVVSILLPLVIVGAGIAGFLICTRRHLHTSSVAKELEPFQEQQENTIRFPVTEVGFAETEEETASN |
| no binding | binds | – | binds | H86D-L90R (receptor, on HEK293 FreeStyle cells; also called mHVEM H86D-L90R; not shown: mCherry reporter (and any vector linker) fused at the cytoplasmic C-terminus (pmCherry-N1)) QPSCRQEEFLVGDECCPMCNPGYHVKQVCSEHTGTVCAPCPPQTYTADANGRSKCLPCGVCDPDMGLLTWQECSSWKDTVCRCIPGYFCENQDGSHCSTCLQHTTCPPGQRVEKRGTHDQDTVCADCLTGTFSLGGTQEECLPWTNCSAFQQEVRRGTNSTDTTCSSQVVYYVVSILLPLVIVGAGIAGFLICTRRHLHTSSVAKELEPFQEQQENTIRFPVTEVGFAETEEETASN |
| binds | no binding | no binding | no binding | G72A-V74D (receptor, on HEK293 FreeStyle cells; also called mHVEM G72A-V74D; not shown: mCherry reporter (and any vector linker) fused at the cytoplasmic C-terminus (pmCherry-N1)) QPSCRQEEFLVGDECCPMCNPGYHVKQVCSEHTATDCAPCPPQTYTAHANGLSKCLPCGVCDPDMGLLTWQECSSWKDTVCRCIPGYFCENQDGSHCSTCLQHTTCPPGQRVEKRGTHDQDTVCADCLTGTFSLGGTQEECLPWTNCSAFQQEVRRGTNSTDTTCSSQVVYYVVSILLPLVIVGAGIAGFLICTRRHLHTSSVAKELEPFQEQQENTIRFPVTEVGFAETEEETASN |
| – | – | no binding | – | mouse HVEM R43D-M56A-K64D triple mutation, full length, fused to mCherry, on cells (receptor, also called mHVEM R43D-M56A-K64D; not shown: mCherry fused at the C-terminus (pmCherry-N1 vector)) QPSCDQEEFLVGDECCPACNPGYHVDQVCSEHTGTVCAPCPPQTYTAHANGLSKCLPCGVCDPDMGLLTWQECSSWKDTVCRCIPGYFCENQDGSHCSTCLQHTTCPPGQRVEKRGTHDQDTVCADCLTGTFSLGGTQEECLPWTNCSAFQQEVRRGTNSTDTTCSSQVVYYVVSILLPLVIVGAGIAGFLICTRRHLHTSSVAKELEPFQEQQENTIRFPVTEVGFAETEEETASN |
| – | binds | – | binds | mouse HVEM H86D-L90A double mutein, full length, fused to mCherry, on cells (receptor, also called mHVEM H86D-L90A; mHVEM^-LIGHT; not shown: mCherry fused at the C-terminus (pmCherry-N1 vector)) QPSCRQEEFLVGDECCPMCNPGYHVKQVCSEHTGTVCAPCPPQTYTADANGASKCLPCGVCDPDMGLLTWQECSSWKDTVCRCIPGYFCENQDGSHCSTCLQHTTCPPGQRVEKRGTHDQDTVCADCLTGTFSLGGTQEECLPWTNCSAFQQEVRRGTNSTDTTCSSQVVYYVVSILLPLVIVGAGIAGFLICTRRHLHTSSVAKELEPFQEQQENTIRFPVTEVGFAETEEETASN |
